# Assay results as given in patent US9872893B2, “Endolysins active against Staphylococcus bacteria, pharmaceutical compositions, and methods relating thereto” (priority 2014, dated 2018).
# Assays:
# [1] = system: Staphylococcus aureus, NRS-14; experiment: plate lysis assay (spectrum of lytic activity); assay type: cell-based; design: key to strength of lytic zone: strong lytic zone = ++; weak lytic zone = +; no lytic zone = −; settings: 6 μg; S. aureus NRS-14, VISA
# Procedure: (§1) The PlyGRCS spectrum of lytic activity was performed (Schmelcher M et al. (2012) Chimeric phage lysins act synergistically with lysostaphin to kill mastitis-causing Staphylococcus aureus in murine mammary glands. Appl Environ Microbiol 78(7):2297-305) with minor modifications. Bacterial cells were diluted in sterile PBS to an OD600=1, and 100 μl was spread on each plate. 10 μl spots (600 μg/ml) of PlyGRCS or CHAPGRCS were applied. Plates were incubated overnight at 37° C. Strength of lytic zones was defined qualitatively.
# [2] = system: Staphylococcus aureus, NRS-384; experiment: plate lysis assay (spectrum of lytic activity); assay type: cell-based; design: key to strength of lytic zone: strong lytic zone = ++; weak lytic zone = +; no lytic zone = −; settings: 6 μg
# Procedure: as §1
# [3] = system: Staphylococcus aureus, NRS-71; experiment: plate lysis assay (spectrum of lytic activity); assay type: cell-based; design: key to strength of lytic zone: strong lytic zone = ++; weak lytic zone = +; no lytic zone = −; settings: 6 μg
# Procedure: as §1
# [4] = system: Staphylococcus epidermidis, NRS-101; experiment: plate lysis assay (spectrum of lytic activity); assay type: cell-based; design: key to strength of lytic zone: strong lytic zone = ++; weak lytic zone = +; no lytic zone = −; settings: 6 μg
# Procedure: as §1
# [5] = system: Bacillus pumulis, BJ0055; experiment: plate lysis assay (spectrum of lytic activity); assay type: cell-based; design: key: strong lytic zone = ++; weak lytic zone = +; no lytic zone = −; settings: 6 μg
# Procedure: as §1
# [6] = system: Enterococcus facealis, EF24; experiment: plate lysis assay (spectrum of lytic activity); assay type: cell-based; design: key: strong lytic zone = ++; weak lytic zone = +; no lytic zone = −; settings: 6 μg
# Procedure: as §1
# [7] = system: Staphylococcus aureus, NRS-382; experiment: plate lysis assay (spectrum of lytic activity); assay type: cell-based; design: key: strong lytic zone = ++; weak lytic zone = +; no lytic zone = −; settings: 6 μg; S. aureus NRS-382, MRSA
# Procedure: as §1
# [8] = system: Staphylococcus aureus, NRS-385; experiment: plate lysis assay (spectrum of lytic activity); assay type: cell-based; design: key: strong lytic zone = ++; weak lytic zone = +; no lytic zone = −; settings: 6 μg; S. aureus NRS-385, MRSA
# Procedure: as §1
# [9] = system: Streptococcus equi, ATCC 9528; experiment: plate lysis assay (spectrum of lytic activity); assay type: cell-based; design: key: strong lytic zone = ++; weak lytic zone = +; no lytic zone = −; settings: 6 μg
# Procedure: as §1
# [10] = system: Streptococcus pneumoniae, ATCC BAA-334; experiment: plate lysis assay (spectrum of lytic activity); assay type: cell-based; design: key: strong lytic zone = ++; weak lytic zone = +; no lytic zone = −; settings: 6 μg
# Procedure: as §1
# [11] = system: Streptococcus pyogenes, D471; experiment: plate lysis assay (spectrum of lytic activity); assay type: cell-based; design: key: strong lytic zone = ++; weak lytic zone = +; no lytic zone = −; settings: 6 μg
# Procedure: as §1
# [12] = system: Streptococcus suis, 730082; experiment: plate lysis assay (spectrum of lytic activity); assay type: cell-based; design: key: strong lytic zone = ++; weak lytic zone = +; no lytic zone = −; settings: 6 μg
# Procedure: as §1
# [13] = system: Streptococcus uberis, ATCC 700407; experiment: plate lysis assay (spectrum of lytic activity); assay type: cell-based; design: key: strong lytic zone = ++; weak lytic zone = +; no lytic zone = −; settings: 6 μg
# Procedure: as §1
# [14] = system: stationary phase S. aureus NRS-14; experiment: turbidity reduction assay (lytic activity); assay type: cell-based, Staphylococcus aureus; settings: equimolar concentrations; for lytic activity (in words): isolated domain
# Procedure: Lytic activity was based on turbidity reduction assay (Nelson D C et al. (2012) Endolysins as antimicrobials. Adv Virus Res 83:299-365). Briefly, bacterial cells were centrifuged (4,000 RPM, 5 minutes, 4° C.), re-suspended in buffer and mixed 1:1 (v/v) with endolysin to a final OD600=1. OD600 readings were taken every 15 seconds for 20 minutes at 37° C. Endolysin activity was equated to the Vmax dictated by the linear portion of the resulting killing curve. Each experiment was performed in triplicate.
# To determine dose response, PlyGRCS was serially diluted and each dosage (100 μl) was added in triplicate to a 96-well polystyrene microtiter plate (Nest Biotech Co, Ltd) just before addition of bacterial cells (100 μl) according to the turbidity reduction assay described above. For optimum pH determination, bacterial cells were suspended in 40 mM boric acid/phosphoric acid (BP) buffer, pH 3-11, and were challenged against PlyGRCS. The influence of NaCl on PlyGRCS activity was tested in BP buffer at the experimentally determined pH optimum using the same assay. The effect of divalent cations was determined using the turbidity reduction assay with several modifications. First, PlyGRCS was incubated at room temperature in PBS or PBS supplemented with 5 mM EDTA for 10 minutes. Second, the EDTA-treated samples received either no further treatment, or were supplemented with 6 mM CaCl2 or 6 mM MgCl2. Finally, the lytic active of the samples was then immediately assayed and compared to PlyGRCS in PBS prior to EDTA inactivation. Kinetic stability was evaluated (Son B et al. (2012) Characterization of LysB4, an endolysin from the Bacillus cereus-infecting bacteriophage B4. BMC Microbiol 12:33) with minor modifications. Lytic assays were performed in optimal conditions after PlyGRCS was incubated at indicated temperatures for 30 minutes and subsequently recovered on ice for 5 minutes.
# [15] = circular dichroism melting experiments; assay type: physicochemical; settings: 0.1 mg/ml, 20 mM sodium phosphate buffer pH 7, 20-95° C. at 1° C./min
# Procedure: CD experiments for wild-type (WT) and active-site mutants were performed on a Chirascan CD spectrometer (Applied Photophysics) equipped with a thermoelectrically controlled cell holder. CD spectra were obtained in the far-UV range (190-260 nm) in a 1 mm path length quartz cuvette at 1 nm steps with 5 second signal averaging per data point. Spectra were collected in triplicate, followed by averaging, baseline subtraction, smoothing and conversion to mean residue ellipticity (MRE) by the Pro-Data software (Applied Photophysics). Secondary structure prediction was performed using the Provencher and Glockner method (Provencher S W & Glockner J (1981) Estimation of globular protein secondary structure from circular dichroism. Biochemistry 20(1):33-7) provided by DICHROWEB (Whitmore L & Wallace B A (2004) DICHROWEB, an online server for protein secondary structure analyses from circular dichroism spectroscopic data. Nucleic Acids Res 32:W668-73).
# Melting experiments were performed by heating PlyGRCS at a 0.1 mg/ml concentration in 20 mM sodium phosphate buffer pH 7 from 20° C. to 95° C. using a 1° C./min heating rate. MRE was monitored at 218 nm in a 1 mm path length quartz cuvette at 0.5° C. steps with 5 second signal averaging per data point. The melting data was smoothed, normalized and fit with a Boltzmann sigmoidal curve. The first derivative of the melting curve was then taken to determine the temperature (Tm) at which the folded and unfolded protein species in solution were at equilibrium (Fallas J A & Hartgerink J D (2012) Computational design of self-assembling register-specific collagen heterotrimers. Nat Commun 3:1087).
# [16] = system: S. aureus NRS-14; experiment: cell wall binding by fluorescence microscopy; design: species or system Staphylococcus aureus; settings: 10 μg, detected via anti-His antibody and AlexaFluor 488 secondary
# Procedure: An overnight culture of S. aureus NRS-14 was concentrated 5× in BP buffer and was incubated at room temperature with 10 μg SH3_5GRCS containing the 6× His tag for 10 minutes. A control without SH3_5GRCS was also utilized. The samples were washed with PBS and incubated for 10 minutes at room temperature with 1 μl mouse anti-His antibody (Gen Script). After washing with PBS, AlexaFluor-488 conjugated goat anti-mouse IgG (H+L) antibody (1 μl) (Invitrogen) was incubated with samples for an additional 10 minutes. Samples were washed again with PBS before being visualized via fluorescence and bright field microscopy. An Eclipse 80i epifluorescent microscope workstation (Nikon) with X-Cite 120 illuminator (EXFO) and Retiga 2000R CCD camera was used. NIS-Elements software (Nikon) was used for image analysis.
molecule,measurement,setting,value
"CHAPGRCS: PlyGRCS catalytic CHAP domain, amino acids 1-140, SEQ ID NO: 6 (protein, Synthetically generated polypeptide (CHAPGRCS (amino acids 1-140))) MKSQQQAKEWIYKHEGTGVDFDGAYGFQCMDLAVAYVYYITDGKVRMWGNAKDAINNDFKGLATVYENTPSFKPQLGDVAVYTNSQYGHIQCVISGNLDYYTCLEQNWLGGGFDGWEKATIRTHYYDGVTHFIRPKFSAS",strength of lytic zone,[1],−
same,lytic activity on plates (in words),[2]; S. aureus NRS-384,relatively weak clearing zones
same,strength of lytic zone,"[2]; S. aureus NRS-384, MRSA",+
same,lytic activity on plates (in words),[3]; S. aureus NRS-71,relatively weak clearing zones
same,strength of lytic zone,"[3]; S. aureus NRS-71, MRSA",+
same,lytic activity on plates (in words),[4]; S. epidermidis NRS-101,relatively weak clearing zones
same,strength of lytic zone,"[4]; S. epidermidis NRS-101, MRSE",+
same,strength of lytic zone,[5],−
same,strength of lytic zone,[6],−
same,strength of lytic zone,[7],−
same,strength of lytic zone,[8],−
same,strength of lytic zone,[9],−
same,strength of lytic zone,[10],−
same,strength of lytic zone,[11],−
same,strength of lytic zone,[12],−
same,strength of lytic zone,[13],−
same,lytic activity relative to full-length PlyGRCS,[14],8-10%
same,lytic activity relative to full-length PlyGRCS,[14]; listed as CHAP domain,about 10%
same,Tm,[15],44.8 °C
"SH3_5GRCS: PlyGRCS cell wall binding SH3_5 domain, amino acids 150-250, SEQ ID NO: 7 (protein, Synthetically generated polypeptide (SH3_5GRCS (amino acids 150-250))) NTFGNWKQNQYGTYYRNENATFTCGFLPIFARVGSPKLSEPNGYWFQPNGYTPYDEVCLSDGLVWIGYNWQGTRYYLPVRQWNGKTGNSYSIGLPWGVFS",lytic activity (in words),[14],little to no lytic activity
same,lytic activity (in words),[14]; listed as SH3_5 binding domain,lacked activity
same,Tm,[15],44.5 °C
same,binding to staphylococcal cell wall,[16],possessed the ability to specifically bind staphylococci
same,binding to staphylococcal cell wall,[16]; listed as SH3_5 binding domain,interact directly with the staphylococcal cell wall
